How the values were obtained:
[1] = target: associated or linker proteins (plasma proteins of the approximately 320 kDa complex); test: SEC
[2] = target: Complement C3 (purified, native) (UniProt P01024); test: pull-down
[3] = target: Complement C3 (purified, native) (UniProt P01024); test: flow cytometry on coated beads

percent of AAT in the complex [1] [%]	Western blot densitometry of bound AAT (C3-coated beads vs control beads) [2] [AU]	fluorescence intensity of binding (h-AAT vs r-AAT) [3] [AU]	Substance
13			Alpha-1 antitrypsin (from UniProt P01009 25-418) (natural protein)
	2.7	1.5	plasma purified human AAT (natural protein)

From publication PMC7231451
